Results reported in patent publication US20080227711A1 (LABORATOIRES SERONO, published 2008).

B1: recombinant Evasin-3-6His purified from HEK293 cells (other)
chain: LVSTIESRTSGDGADNFDVVSCNKNCTSGQNECPEGCFCGLLGQNKKGHCYKIIGNLSGEPPVVRRHHHHHH
modifications: glycosylation on the S and T residues of the N-terminal sequence LVSTIESRTS (80% of the mature protein); heterogeneous post-translational modification, smear of 20-30 Kd
notes: also called Evasin-3-HIS; mature Evasin-3-HIS

What was measured:
murine CXCL1/KC [1] = target: T1, murine CXCL1/KC (murine, UniProt P12850 25-96); test: SPR (Biacore 3000), Evasin-3-6His immobilized on CM4 chip, Kd=kd/ka
T1 sequence: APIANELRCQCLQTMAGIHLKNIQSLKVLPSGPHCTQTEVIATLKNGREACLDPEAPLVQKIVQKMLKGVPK

CXCL1/Gro-alpha [2] = target: T2, CXCL1/Gro-alpha (UniProt P09341 35-107); test: as above
T2 construct: also called Gro-α; 125I-CXCL1/Gro-alpha
T2 sequence: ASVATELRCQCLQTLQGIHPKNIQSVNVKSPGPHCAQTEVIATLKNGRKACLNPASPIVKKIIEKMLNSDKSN

murine CXCL2/MIP-2 [3] = target: T3, murine CXCL2/MIP-2 (murine, UniProt P10889 28-100); test: as above
T3 sequence: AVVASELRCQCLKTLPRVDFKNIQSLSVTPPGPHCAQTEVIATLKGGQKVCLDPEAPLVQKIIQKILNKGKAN

CXCL8/IL-8 [4] = target: T4, CXCL8/IL-8 (UniProt P10145 28-99, limits assumed); test: as above
T4 construct: also called 125I-CXCL8/IL-8; 125I-IL-8
T4 sequence (looked up): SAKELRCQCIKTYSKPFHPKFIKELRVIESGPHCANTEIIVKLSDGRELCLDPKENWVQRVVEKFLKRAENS

murine CXCL1/KC [5] = target: T1, murine CXCL1/KC; test: SPR (Biacore 3000), Evasin-3-6His immobilized on CM4 chip, chemokine injected, Langmuir global fit
CXCL1/Gro-alpha [6] = target: T2, CXCL1/Gro-alpha; test: as above
murine CXCL2/MIP-2 [7] = target: T3, murine CXCL2/MIP-2; test: as above
CXCL8/IL-8 [8] = target: T4, CXCL8/IL-8; test: as above
CCL11/eotaxin = target: T5, CCL11/eotaxin (UniProt P51671 24-97); test: SPR (Biacore 3000), Evasin-3-6His immobilized on CM4 chip, chemokine injected
T5 construct: also called 125I-eotaxin
T5 sequence (P51671 24-97 limits assumed): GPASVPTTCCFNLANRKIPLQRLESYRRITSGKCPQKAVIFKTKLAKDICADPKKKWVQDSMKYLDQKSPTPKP

CXCL12/SDF-1-alpha = target: T6, CXCL12/SDF-1-alpha (UniProt P48061 22-89); test: as above
T6 construct: also called SDF-1α
T6 sequence (P48061 22-89 limits assumed): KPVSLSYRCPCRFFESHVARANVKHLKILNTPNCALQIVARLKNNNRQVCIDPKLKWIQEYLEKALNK

CX3CL1/Fractalkine = target: T7, CX3CL1/Fractalkine (UniProt P78423 25-100); test: as above
T7 sequence: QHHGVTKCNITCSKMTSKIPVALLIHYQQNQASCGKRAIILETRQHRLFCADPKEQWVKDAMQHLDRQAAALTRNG

CXCL8/IL-8 [9] = target: T4, CXCL8/IL-8; test: equilibrium competition receptor binding assay: inhibition of 0.1 nM 125I-IL-8 binding to CHO/CXCR1 cells
CTACK/CCL27 = target: T8, CTACK/CCL27 (UniProt Q9Y4X3 25-112); test: BS3 cross-linking of 125I-labelled protein to Evasin-3-6His, SDS-PAGE autoradiography (FIG. 7)
T8 construct: also called 125I-CCL27/CTACK
T8 sequence: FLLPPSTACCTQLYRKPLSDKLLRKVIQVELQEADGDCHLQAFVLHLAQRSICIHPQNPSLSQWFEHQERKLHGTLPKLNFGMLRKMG

CXCL10/IP-10 = target: T9, CXCL10/IP-10 (UniProt P02778 22-98); test: as above
T9 construct: also called 125I-CXCL10/IP-10
T9 sequence: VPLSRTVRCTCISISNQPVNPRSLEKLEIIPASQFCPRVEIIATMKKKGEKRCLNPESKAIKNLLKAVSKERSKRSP

CCL2/MCP-1 = target: T10, CCL2/MCP-1 (UniProt P13500 24-99); test: as above
T10 construct: also called 125I-MCP-1
T10 sequence (P13500 24-99 limits assumed): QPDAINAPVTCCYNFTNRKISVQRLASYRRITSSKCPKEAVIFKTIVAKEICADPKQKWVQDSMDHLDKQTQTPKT

IL-2 = target: T11, IL-2 (UniProt P60568 21-153); test: as above
T11 construct: also called 125I-IL-2
T11 sequence (P60568 21-153 limits assumed): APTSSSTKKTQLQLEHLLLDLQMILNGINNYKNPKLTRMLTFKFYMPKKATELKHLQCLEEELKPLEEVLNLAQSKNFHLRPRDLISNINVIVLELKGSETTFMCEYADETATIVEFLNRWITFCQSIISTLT

IL-1α = target: T12, IL-1α (UniProt P01583 113-271); test: as above
T12 construct: also called 125I-IL-1
T12 sequence: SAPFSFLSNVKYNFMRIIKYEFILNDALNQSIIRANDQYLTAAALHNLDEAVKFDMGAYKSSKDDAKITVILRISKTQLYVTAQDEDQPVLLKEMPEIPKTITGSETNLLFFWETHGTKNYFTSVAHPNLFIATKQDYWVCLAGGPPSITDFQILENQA

CXCL1/Gro-alpha [10] = target: T2, CXCL1/Gro-alpha; test: cell-based or functional assay
CXCL8/IL-8 [11] = target: T4, CXCL8/IL-8; test: cell-based or functional assay
[12] = target: B1; test: BS3 cross-linking of 125I-labelled protein to Evasin-3-6His, SDS-PAGE autoradiography (FIG. 7)
[13] = target: B1; test: SPR (Biacore 3000), Evasin-3-6His immobilized on CM4 chip, chemokine injected
[14] = target: B1; test: competition for BS3 cross-linking of 125I-CXCL8/IL-8 to recombinant Evasin-3 in HEK293 supernatant, SDS-PAGE autoradiography

For B1, which Kd (murine CXCL1/KC [1]) is on record?
Its Kd is 5.34 nM.

And the Kd (CXCL1/Gro-alpha [2])?
Its Kd is 0.45 nM.

What about the Kd (murine CXCL2/MIP-2 [3]) of the same binder?
The Kd was 0.18 nM.

What about the Kd (CXCL8/IL-8 [4]) of the same binder?
Its Kd is 0.22 nM.

And the koff (murine CXCL1/KC [5])?
Its koff is 0.0012 s⁻¹.

What about the kon (murine CXCL1/KC [5]) of the same binder?
The kon was 225000 M⁻¹ s⁻¹.

And the koff (CXCL1/Gro-alpha [6])?
Its koff is 0.00117 s⁻¹.

What about the kon (CXCL1/Gro-alpha [6]) of the same binder?
Its kon is 2.6e+06 M⁻¹ s⁻¹.

What about the koff (murine CXCL2/MIP-2 [7]) of the same binder?
The koff was 0.000255 s⁻¹.

What about the kon (murine CXCL2/MIP-2 [7]) of the same binder?
Its kon is 1.43e+06 M⁻¹ s⁻¹.

What about the koff (CXCL8/IL-8 [8]) of the same binder?
The koff was 0.000178 s⁻¹.

What about the kon (CXCL8/IL-8 [8]) of the same binder?
The kon was 826000 M⁻¹ s⁻¹.

Does B1 bind (CCL11/eotaxin)?
Result: no binding (tested: 0.5 µg/ml chemokine)

Does B1 bind (CXCL12/SDF-1-alpha)?
Result: no binding (tested: 0.5 µg/ml chemokine)

Does B1 bind (CX3CL1/Fractalkine)?
Result: no binding (tested: 0.5 µg/ml chemokine)

And the IC50 (CXCL8/IL-8 [9])?
Its IC50 is 1 nM.

Does B1 bind (CTACK/CCL27)?
Result: no binding (tested: 0.23 nM 125I-labelled protein)

Does B1 bind (CXCL10/IP-10)?
Result: no binding (tested: 0.23 nM 125I-labelled protein)

Does B1 bind (CCL2/MCP-1)?
Result: no binding (tested: 0.23 nM 125I-labelled protein)

Does B1 bind (IL-2)?
Result: no binding (tested: 0.23 nM 125I-labelled protein)

Does B1 bind (IL-1α)?
Result: no binding (tested: 0.23 nM 125I-labelled protein)

And the “IC50 of inhibition of Gro-alpha induced chemotaxis of human neutrophils” value (CXCL1/Gro-alpha [10])?
The value was 20 nM.

And the “IC50 of inhibition of IL-8 induced chemotaxis of human neutrophils” value (CXCL8/IL-8 [11])?
The value was 16 nM.

B2: TARC/CCL17 (ligand)
chain: ARGTNVGRECCLEYFKGAIPLRKLKTWYQTSEDCSRDAIVFVTVQGRAICSDPNNKRVKNAVKYLQSLERS
notes: also called 125I-CCL17/TARC
Does B2 bind [12]?
Result: no binding (tested: 0.23 nM 125I-labelled protein)

B3: CCL4/MIP-1-beta (ligand)
chain: APMGSDPPTACCFSYTARKLPRNFVVDYYETSSLCSQPAVVFQTKRSKQVCADPSESWVQEYVYDLELN
notes: also called MIP-1β
Does B3 bind [13]?
Result: no binding (tested: 0.5 µg/ml chemokine)

B4: CCL3/MIP-1-alpha (ligand)
chain: SLAADTPTACCFSYTSRQIPQNFIADYFETSSQCSKPGVIFLTKRSRQVCADPSEEWVQKYVSDLELSA
notes: also called MIP-1α
Does B4 bind [14]?
Result: no binding (tested: 1 µg unlabelled (500 fold excess))

B5: CCL18/PARC (ligand)
chain: AQVGTNKELCCLVYTSWQIPQKFIVDYSETSPQCPKPGVILLTKRGRQICADPNKKWVQKYISDLKLNA
Does B5 bind [13]?
Result: no binding (tested: 0.5 µg/ml chemokine)

B6: CCL5/RANTES (ligand)
chain: SPYSSDTTPCCFAYIARPLPRAHIKEYFYTSGKCSNPAVVFVTRKNRQVCANPEKKWVREYINSLEMS
notes: also called 125I-CCL5/RANTES
Does B6 bind [12]?
Result: no binding (tested: 0.23 nM 125I-labelled protein)
